The results in this text go back to the supplement of paper PMC7877785.

± gives the uncertainty stated by the source.

The nature of the series: self-splicing fitness, log relative to wild type (ln ratio); higher = more splicing; Tetrahymena group I intron in knt gene, E. coli kanamycin selection, DiMSum; sequences stand for … in CUCUCU…GGAGGGAAAAGUUAUCAGGCAUGCACCUGGUAGCUAGUCUUUAAACCAAUAGAUUGCAUCGGUUUAAAAGGCAAGACCGUCAAAUUGCGGGAAAGGGGUCAACAGCCGUUCAGUACCAAGUCUCAGGGGAAACUUUGAGAUGGCCUUGCAAAGGGUAUGGUAAUAAGCUGACGGACAUGGUCCUAACCACGCAGCCAAGUCCUAAGUCAACAGAUCUUCUGUUGAUAUGGAUGCAGUUCACAGACUAAAUGUCGGUCGGGGAAGAUGUAUUCUUCUCAUAAGAUAUAGUCGGACCUCUCCUUAAUGGGAGCUAGCGGAUGAAGUGAUGCAACACUGGAGCCGCUGGGAACUAAUUUGUAUGCGAAAGUAUAUUGAUUAGUUUUGGAGUACUCGUGGUCG
The essentials: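 Library with all eight P1ex-region intron nucleotides randomised, intron inside the knt kanamycin-resistance gene on pET-22b(+), in E. coli BL21(DE3). Cells grew overnight at 37°C or 30°C on LB agar with or without 25 μg/mL kanamycin (plus 100 μg/mL carbenicillin, 50 μM IPTG, 0.2% rhamnose), in six replicate transformations. Pooled colonies were amplicon-sequenced on Illumina HiSeq 2500. DiMSum fitness is the error-weighted combination of wild-type-normalised replicate fold changes, kanamycin versus none.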

In the case of CGAGAGCAAUAUUACGAAAU, the “self-splicing fitness (ln)” value was -2.81 ± 0.24 (30 °C) and -2.97 ± 0.37 (37 °C). Taken in the same sequence, the figures for AUUCAGCAAUAUUACGAAAA were 0.178 ± 0.15 and 0.575 ± 0.17. For GGAAAGCAAUAUUACGCACU, in that order: -1.35 ± 0.22 and -1.57 ± 0.3. For the sequence UAUCAGCAAUAUUACGGUGC, the “self-splicing fitness (ln)” value is -3.27 ± 0.19 (30 °C) and -1.14 ± 0.14 (37 °C). Taken in the same sequence, the figures for AAUGAGCAAUAUUACGUUCC were -2.71 ± 0.17 and -1.43 ± 0.2. Taken in the same sequence, the figures for CUGAAGCAAUAUUACGAACG were 0.17 ± 0.13 and 0.661 ± 0.17. For UACGAGCAAUAUUACGUAGG, in that order: -3.41 ± 0.31 and -2.57 ± 0.28. Consider GUUUAGCAAUAUUACGUAAG, for which the “self-splicing fitness (ln)” value is, setting by setting: (30 °C) -0.762 ± 0.085; (37 °C) 0.076 ± 0.15. Regarding GCUGAGCAAUAUUACGCCUG, the “self-splicing fitness (ln)” value (30 °C) was -1.28 ± 0.23. Consider AUUCAGCAAUAUUACGAGAC, for which the “self-splicing fitness (ln)” value (37 °C) was -0.937 ± 0.18.

For GUAGAGCAAUAUUACGUGGG, the “self-splicing fitness (ln)” value was -2.75 ± 0.17 (30 °C) and -2.08 ± 0.2 (37 °C).

Take UUGGAGCAAUAUUACGGACG: the “self-splicing fitness (ln)” value is -3.11 ± 0.32 (30 °C) and -1.04 ± 0.34 (37 °C). As to GCGGAGCAAUAUUACGUUGG, the “self-splicing fitness (ln)” value (37 °C) is -3.01 ± 0.4. Take UGAGAGCAAUAUUACGGUUC: the “self-splicing fitness (ln)” value runs as follows: (30 °C) -3.4 ± 0.32; (37 °C) -1.5 ± 0.23.

As to GAAUAGCAAUAUUACGUUGC, the “self-splicing fitness (ln)” value reads like this: (30 °C) -4.27 ± 0.34; (37 °C) -2.69 ± 0.37.

Take UCCAAGCAAUAUUACGCUAG: the “self-splicing fitness (ln)” value runs as follows: (30 °C) -3.67 ± 0.32; (37 °C) -3.6 ± 0.35.

On to UUAAAGCAAUAUUACGAACC, for which the “self-splicing fitness (ln)” value (30 °C) is -1.34 ± 0.18 and the “self-splicing fitness (ln)” value (37 °C) was -0.963 ± 0.23. Taken in the same sequence, the figures for AGUCAGCAAUAUUACGGGUG were -1.82 ± 0.084 and -0.948 ± 0.12.

On to GGGUAGCAAUAUUACGCUCU, for which, for the setting “30 °C”, the “self-splicing fitness (ln)” value is -3.13 ± 0.34.

As for GGGGAGCAAUAUUACGUAAG, the “self-splicing fitness (ln)” value is, setting by setting: (30 °C) -2.56 ± 0.21; (37 °C) -1.01 ± 0.24. For AGUUAGCAAUAUUACGCGUG, in that order: -2.38 ± 0.2 and -0.946 ± 0.17. Consider GCCGAGCAAUAUUACGCCCC, for which the “self-splicing fitness (ln)” value (30 °C) is -1.58 ± 0.37. As to CGAAAGCAAUAUUACGGGCC, the “self-splicing fitness (ln)” value (30 °C) is -3.07 ± 0.23 and the “self-splicing fitness (ln)” value (37 °C) was -3.07 ± 0.21. Consider UGACAGCAAUAUUACGUACG, for which the “self-splicing fitness (ln)” value (30 °C) is -0.78 ± 0.071 and the “self-splicing fitness (ln)” value (37 °C) is -0.016 ± 0.083.

As for GAGAAGCAAUAUUACGCACG, the “self-splicing fitness (ln)” value is, setting by setting: (30 °C) -0.497 ± 0.14; (37 °C) -0.392 ± 0.15. Taken in the same sequence, the figures for UUAAAGCAAUAUUACGUUGU were -3.19 ± 0.13 and -1.4 ± 0.13. Taken in the same sequence, the figures for ACCGAGCAAUAUUACGCCGA were -2.48 ± 0.47 and -2.74 ± 0.38. Taken in the same sequence, the figures for UGGCAGCAAUAUUACGGCCC were -1.18 ± 0.15 and -0.287 ± 0.21.

For GAGCAGCAAUAUUACGAACU, the “self-splicing fitness (ln)” value by setting is: (30 °C) -1.17 ± 0.12; (37 °C) -0.227 ± 0.17. For GCUGAGCAAUAUUACGGUCC, in that order: -2.99 ± 0.28 and -0.889 ± 0.26. For the sequence UACGAGCAAUAUUACGUCGU, the “self-splicing fitness (ln)” value (30 °C) is -4.08 ± 0.33. Take ACACAGCAAUAUUACGUGAU: the “self-splicing fitness (ln)” value was -2.14 ± 0.062 (30 °C) and -1.34 ± 0.086 (37 °C). In the case of UCCUAGCAAUAUUACGCAGC, the “self-splicing fitness (ln)” value (37 °C) was -0.949 ± 0.4. Take CCUCAGCAAUAUUACGAGCA: the “self-splicing fitness (ln)” value was -3.04 ± 0.26 (30 °C) and -2.87 ± 0.25 (37 °C). For the sequence AAAAAGCAAUAUUACGCGAA, the “self-splicing fitness (ln)” value is, setting by setting: (30 °C) -2.07 ± 0.12; (37 °C) -1.19 ± 0.16. Taken in the same sequence, the figures for CUCGAGCAAUAUUACGGGCU were -3.17 ± 0.23 and -3.24 ± 0.42.

As for CGAAAGCAAUAUUACGCCAC, for the setting “30 °C”, the “self-splicing fitness (ln)” value was -2.32 ± 0.37. On the same count and under the same terms, the same measure for GGUAAGCAAUAUUACGUAGC: -0.417 ± 0.41. With AGUCAGCAAUAUUACGGAUC, the “self-splicing fitness (ln)” value by setting is: (30 °C) -0.312 ± 0.11; (37 °C) -0.438 ± 0.2. On to UAGGAGCAAUAUUACGGCAC, for which the “self-splicing fitness (ln)” value was -2.4 ± 0.15 (30 °C) and -2.53 ± 0.26 (37 °C). With AGCGAGCAAUAUUACGUAGG, the “self-splicing fitness (ln)” value reads like this: (30 °C) -3.4 ± 0.35; (37 °C) -2.17 ± 0.22.

Consider UUGCAGCAAUAUUACGCUGC, for which the “self-splicing fitness (ln)” value (30 °C) is -3.93 ± 0.29 and the “self-splicing fitness (ln)” value (37 °C) was -2.97 ± 0.38. On to CUGUAGCAAUAUUACGAAAG, for which the “self-splicing fitness (ln)” value is -1.61 ± 0.1 (30 °C) and -0.788 ± 0.14 (37 °C). As for UCCAAGCAAUAUUACGUUGC, the “self-splicing fitness (ln)” value was -3.7 ± 0.17 (30 °C) and -2.41 ± 0.19 (37 °C). In the case of GGUGAGCAAUAUUACGUCGC, the “self-splicing fitness (ln)” value (30 °C) is -3.57 ± 0.49. Regarding UGUGAGCAAUAUUACGUCUU, the “self-splicing fitness (ln)” value is, setting by setting: (30 °C) -2.9 ± 0.29; (37 °C) -2.27 ± 0.3. Take CGAUAGCAAUAUUACGCCCC: the “self-splicing fitness (ln)” value (30 °C) was -1.99 ± 0.29 and the “self-splicing fitness (ln)” value (37 °C) was -0.838 ± 0.29.

UUCAAGCAAUAUUACGACGC: the “self-splicing fitness (ln)” value is -1.27 ± 0.19 (30 °C) and -1.14 ± 0.26 (37 °C). Taken in the same sequence, the figures for AAGAAGCAAUAUUACGACCU were 0.116 ± 0.099 and -0.338 ± 0.11. For CAGUAGCAAUAUUACGAGUU, in that order: -3.52 ± 0.18 and -2.06 ± 0.15.

Regarding CGCAAGCAAUAUUACGAUGU, the “self-splicing fitness (ln)” value by setting is: (30 °C) -1.6 ± 0.075; (37 °C) -0.734 ± 0.1.

Take CGAAAGCAAUAUUACGCCCA: the “self-splicing fitness (ln)” value reads like this: (30 °C) -0.283 ± 0.12; (37 °C) 0.0973 ± 0.15.

As for AAGCAGCAAUAUUACGUUGU, the “self-splicing fitness (ln)” value runs as follows: (30 °C) -3.89 ± 0.12; (37 °C) -2.31 ± 0.11. Taken in the same sequence, the figures for UCUGAGCAAUAUUACGCCUG were -3.02 ± 0.18 and -2.18 ± 0.2. Taken in the same sequence, the figures for AUUUAGCAAUAUUACGGUGA were -1.17 ± 0.27 and -1.7 ± 0.19. Take GUCCAGCAAUAUUACGAUUA: the “self-splicing fitness (ln)” value by setting is: (30 °C) -0.767 ± 0.074; (37 °C) -0.551 ± 0.077. CUUUAGCAAUAUUACGAAGA: the “self-splicing fitness (ln)” value (37 °C) is -2.43 ± 0.34.

Turning to GAUCAGCAAUAUUACGAGAC, the “self-splicing fitness (ln)” value (30 °C) is -3.07 ± 0.44 and the “self-splicing fitness (ln)” value (37 °C) is -1.86 ± 0.13.

GUUUAGCAAUAUUACGCCCG: the “self-splicing fitness (ln)” value reads like this: (30 °C) -3.02 ± 0.24; (37 °C) -1.18 ± 0.24. For UACUAGCAAUAUUACGUUCG, in that order: -0.992 ± 0.077 and -0.484 ± 0.094. CGGGAGCAAUAUUACGCGUC: the “self-splicing fitness (ln)” value was -2.87 ± 0.22 (30 °C) and -2.8 ± 0.27 (37 °C). Consider UCUAAGCAAUAUUACGUAUU, for which the “self-splicing fitness (ln)” value reads like this: (30 °C) -3.09 ± 0.2; (37 °C) -2.16 ± 0.2. For AAGAAGCAAUAUUACGACGC, in that order: -0.655 ± 0.12 and -0.0572 ± 0.17. In the case of UAACAGCAAUAUUACGUACG, the “self-splicing fitness (ln)” value (30 °C) is -0.675 ± 0.047 and the “self-splicing fitness (ln)” value (37 °C) was -0.193 ± 0.069.

On to GAGUAGCAAUAUUACGGAGU, for which the “self-splicing fitness (ln)” value (30 °C) is -3.7 ± 0.27 and the “self-splicing fitness (ln)” value (37 °C) was -3.05 ± 0.19.

Consider UUUUAGCAAUAUUACGUUGU, for which the “self-splicing fitness (ln)” value was -2.65 ± 0.18 (30 °C) and -2.13 ± 0.24 (37 °C). As for CCUAAGCAAUAUUACGGGUU, the “self-splicing fitness (ln)” value by setting is: (30 °C) -3.52 ± 0.2; (37 °C) -2.84 ± 0.2. Consider UUGAAGCAAUAUUACGCCGC, for which the “self-splicing fitness (ln)” value (37 °C) was -2.1 ± 0.43.

As for GAUAAGCAAUAUUACGCAAU, the “self-splicing fitness (ln)” value is, setting by setting: (30 °C) -2.21 ± 0.13; (37 °C) -0.936 ± 0.16. Consider ACCCAGCAAUAUUACGUUGC, for which the “self-splicing fitness (ln)” value is, setting by setting: (30 °C) -2.99 ± 0.089; (37 °C) -0.989 ± 0.076. As for UCGUAGCAAUAUUACGCAAG, the “self-splicing fitness (ln)” value is -3.91 ± 0.35 (30 °C) and -2.12 ± 0.27 (37 °C).

Take ACAGAGCAAUAUUACGGCCA: the “self-splicing fitness (ln)” value runs as follows: (30 °C) -3.47 ± 0.19; (37 °C) -2.29 ± 0.17. For AGGUAGCAAUAUUACGUACG, in that order: -1.19 ± 0.015 and -0.48 ± 0.034. Taken in the same sequence, the figures for AUUAAGCAAUAUUACGGGCG were -0.789 ± 0.085 and -0.228 ± 0.11.

Turning to GUCUAGCAAUAUUACGGGAC, the “self-splicing fitness (ln)” value (37 °C) was -1.65 ± 0.45. In the case of CCUCAGCAAUAUUACGGCAC, the “self-splicing fitness (ln)” value runs as follows: (30 °C) -3.55 ± 0.15; (37 °C) -2 ± 0.17. With CUUUAGCAAUAUUACGCGGU, the “self-splicing fitness (ln)” value is, setting by setting: (30 °C) -2.14 ± 0.19; (37 °C) -0.796 ± 0.22. Regarding UUUUAGCAAUAUUACGCCUG, the “self-splicing fitness (ln)” value is, setting by setting: (30 °C) -0.393 ± 0.22; (37 °C) 0.333 ± 0.3.

As to UGUUAGCAAUAUUACGUCUG, the “self-splicing fitness (ln)” value runs as follows: (30 °C) -0.698 ± 0.12; (37 °C) 0.393 ± 0.15.
